Patent US20150344570A1 (published 2015)

T1: FcγRIIb (human, UniProt P31994 43-217)
T1 construct: extracellular domain; Soluble extracellular domain with C-terminal His tag, used as analyte; also called FcgRIIb; CD32B; not shown: His tag at the C terminus
T1 sequence (looked up): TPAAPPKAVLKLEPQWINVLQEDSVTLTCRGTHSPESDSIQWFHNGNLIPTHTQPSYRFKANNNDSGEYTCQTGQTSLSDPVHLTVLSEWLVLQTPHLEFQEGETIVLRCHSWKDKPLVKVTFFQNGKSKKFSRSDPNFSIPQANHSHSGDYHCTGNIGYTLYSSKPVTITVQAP


Experiments:
FcγRIIb = target: T1, FcγRIIb; experiment: SPR (Biacore), captured antibody, FcγR as analyte, relative binding
Protocol: (§1) The heterodimerized antibodies He Abs in which one of the H chains was introduced with an alteration were assayed for their binding activities to each activating FcγR and inhibitory FcγR according to the method described in Example 4. […] The activating FcγRs in FIGS. 26, 27, 28, and 29 are FcγRIa, FcγRIIa (R), FcγRIIa (H), and FcγRIIIa, respectively.
(§2) Analysis of interaction between objective antibody and the FcγR was carried out using Biacore T100 (GE Healthcare). HBS-EP+ (GE Healthcare) was used as the running buffer, and the measurement temperature was set to 25° C. Chips produced by immobilizing the antigen peptide by the amine coupling method to a Series S Sencor Chip CM5 (GE Healthcare), or alternatively, chips produced by allowing preliminarily biotinylated antigen peptides to interact with and immobilize onto a Series S Sensor Chip SA (certified) (GE Healthcare) were used. Antibodies of interest were captured onto an antigen peptide-immobilized chip, and allowed to interact to each FcγR diluted with running buffer. To regenerate and repeatedly use the chip, the antibodies captured on the chip were washed off by reacting 10 mM glycine-HCl, pH 1.5.

FcγRIa = target: T2, FcγRIa (human, UniProt P12314 16-292); experiment: as above
T2 construct: extracellular domain; Soluble extracellular domain with C-terminal His tag, used as analyte; also called FcgRI; CD64; not shown: His tag at the C terminus
T2 sequence (P12314 16-292): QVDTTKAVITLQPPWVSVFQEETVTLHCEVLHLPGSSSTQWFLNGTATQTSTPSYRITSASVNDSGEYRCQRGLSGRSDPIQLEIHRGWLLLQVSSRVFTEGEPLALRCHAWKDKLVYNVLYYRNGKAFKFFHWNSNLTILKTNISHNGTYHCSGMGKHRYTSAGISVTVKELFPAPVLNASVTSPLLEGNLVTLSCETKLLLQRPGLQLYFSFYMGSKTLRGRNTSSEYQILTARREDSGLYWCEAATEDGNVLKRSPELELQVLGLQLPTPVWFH
Protocol: as §1, §2

| Binder | He/Con_2b (FcγRIIb) | He/Con_1a (FcγRIa) |
| --- | --- | --- |
| GpH7-A5/GpH7-B3 variant I336_04F/GpL16-k0 (antibody, human IgG1, kappa, He Ab: mutation in one H chain only; also called He Ab) heavy 1: not shown heavy 2: not shown light: DIVMTQSPLSLPVTPGEPASISCQASESLVHSNRNTYLHWYLQKPGQSPQLLIYKVSNRFSGVPDRFSGSGSGTDFTLKISRVEAEDVGVYYCSQNTHVPPTFGQGTKVEIERTVAAPSVFIFPPSDEQLKSGTASVVCLLNNFYPREAKVQWKVDNALQSGNSQESVTEQDSKDSTYSLSSTLTLSKADYEKHKVYACEVTHQGLSSPVTKSFNRGEC | 91.2 % of GpH7-A5/GpH7-B3/GpL16-k0 | 106 % of GpH7-A5/GpH7-B3/GpL16-k0 |
| GpH7-A5/GpH7-B3 variant A327_15Y/GpL16-k0 (antibody, human IgG1, kappa, He Ab: mutation in one H chain only; also called He Ab) heavy 1: not shown heavy 2: not shown light: DIVMTQSPLSLPVTPGEPASISCQASESLVHSNRNTYLHWYLQKPGQSPQLLIYKVSNRFSGVPDRFSGSGSGTDFTLKISRVEAEDVGVYYCSQNTHVPPTFGQGTKVEIERTVAAPSVFIFPPSDEQLKSGTASVVCLLNNFYPREAKVQWKVDNALQSGNSQESVTEQDSKDSTYSLSSTLTLSKADYEKHKVYACEVTHQGLSSPVTKSFNRGEC | 60.8 % of GpH7-A5/GpH7-B3/GpL16-k0 | 96.3 % of GpH7-A5/GpH7-B3/GpL16-k0 |
| GpH7-A5/GpH7-B3 variant A327_06M/GpL16-k0 (antibody, human IgG1, kappa, He Ab: mutation in one H chain only; also called He Ab) heavy 1: not shown heavy 2: not shown light: DIVMTQSPLSLPVTPGEPASISCQASESLVHSNRNTYLHWYLQKPGQSPQLLIYKVSNRFSGVPDRFSGSGSGTDFTLKISRVEAEDVGVYYCSQNTHVPPTFGQGTKVEIERTVAAPSVFIFPPSDEQLKSGTASVVCLLNNFYPREAKVQWKVDNALQSGNSQESVTEQDSKDSTYSLSSTLTLSKADYEKHKVYACEVTHQGLSSPVTKSFNRGEC | 59.5 % of GpH7-A5/GpH7-B3/GpL16-k0 | 103 % of GpH7-A5/GpH7-B3/GpL16-k0 |
| GpH7-A5/GpH7-B3 variant I336_16H/GpL16-k0 (antibody, human IgG1, kappa, He Ab: mutation in one H chain only; also called He Ab) heavy 1: not shown heavy 2: not shown light: DIVMTQSPLSLPVTPGEPASISCQASESLVHSNRNTYLHWYLQKPGQSPQLLIYKVSNRFSGVPDRFSGSGSGTDFTLKISRVEAEDVGVYYCSQNTHVPPTFGQGTKVEIERTVAAPSVFIFPPSDEQLKSGTASVVCLLNNFYPREAKVQWKVDNALQSGNSQESVTEQDSKDSTYSLSSTLTLSKADYEKHKVYACEVTHQGLSSPVTKSFNRGEC | 85.8 % of GpH7-A5/GpH7-B3/GpL16-k0 | 101 % of GpH7-A5/GpH7-B3/GpL16-k0 |
| GpH7-A5/GpH7-B3 variant I336_11K/GpL16-k0 (antibody, human IgG1, kappa, He Ab: mutation in one H chain only; also called He Ab) heavy 1: not shown heavy 2: not shown light: DIVMTQSPLSLPVTPGEPASISCQASESLVHSNRNTYLHWYLQKPGQSPQLLIYKVSNRFSGVPDRFSGSGSGTDFTLKISRVEAEDVGVYYCSQNTHVPPTFGQGTKVEIERTVAAPSVFIFPPSDEQLKSGTASVVCLLNNFYPREAKVQWKVDNALQSGNSQESVTEQDSKDSTYSLSSTLTLSKADYEKHKVYACEVTHQGLSSPVTKSFNRGEC | 90.3 % of GpH7-A5/GpH7-B3/GpL16-k0 | 105 % of GpH7-A5/GpH7-B3/GpL16-k0 |
| GpH7-A5/GpH7-B3 variant I336_10E/GpL16-k0 (antibody, human IgG1, kappa, He Ab: mutation in one H chain only; also called He Ab) heavy 1: not shown heavy 2: not shown light: DIVMTQSPLSLPVTPGEPASISCQASESLVHSNRNTYLHWYLQKPGQSPQLLIYKVSNRFSGVPDRFSGSGSGTDFTLKISRVEAEDVGVYYCSQNTHVPPTFGQGTKVEIERTVAAPSVFIFPPSDEQLKSGTASVVCLLNNFYPREAKVQWKVDNALQSGNSQESVTEQDSKDSTYSLSSTLTLSKADYEKHKVYACEVTHQGLSSPVTKSFNRGEC | 89.8 % of GpH7-A5/GpH7-B3/GpL16-k0 | 108 % of GpH7-A5/GpH7-B3/GpL16-k0 |

Second part, the binder after the results:

| He/Con_2b (FcγRIIb) | He/Con_1a (FcγRIa) | Binder |
| --- | --- | --- |
| 68.2 % of GpH7-A5/GpH7-B3/GpL16-k0 | 103 % of GpH7-A5/GpH7-B3/GpL16-k0 | GpH7-A5/GpH7-B3 variant I336_15Y/GpL16-k0 (antibody, human IgG1, kappa, He Ab: mutation in one H chain only; also called He Ab) heavy 1: not shown heavy 2: not shown light: DIVMTQSPLSLPVTPGEPASISCQASESLVHSNRNTYLHWYLQKPGQSPQLLIYKVSNRFSGVPDRFSGSGSGTDFTLKISRVEAEDVGVYYCSQNTHVPPTFGQGTKVEIERTVAAPSVFIFPPSDEQLKSGTASVVCLLNNFYPREAKVQWKVDNALQSGNSQESVTEQDSKDSTYSLSSTLTLSKADYEKHKVYACEVTHQGLSSPVTKSFNRGEC |
| 83.7 % of GpH7-A5/GpH7-B3/GpL16-k0 | 102 % of GpH7-A5/GpH7-B3/GpL16-k0 | GpH7-A5/GpH7-B3 variant I336_13S/GpL16-k0 (antibody, human IgG1, kappa, He Ab: mutation in one H chain only; also called He Ab) heavy 1: not shown heavy 2: not shown light: DIVMTQSPLSLPVTPGEPASISCQASESLVHSNRNTYLHWYLQKPGQSPQLLIYKVSNRFSGVPDRFSGSGSGTDFTLKISRVEAEDVGVYYCSQNTHVPPTFGQGTKVEIERTVAAPSVFIFPPSDEQLKSGTASVVCLLNNFYPREAKVQWKVDNALQSGNSQESVTEQDSKDSTYSLSSTLTLSKADYEKHKVYACEVTHQGLSSPVTKSFNRGEC |
| 12.5 % of GpH7-A5/GpH7-B3/GpL16-k0 | 86.1 % of GpH7-A5/GpH7-B3/GpL16-k0 | GpH7-A5/GpH7-B3 variant A327_11K/GpL16-k0 (antibody, human IgG1, kappa, He Ab: mutation in one H chain only; also called He Ab) heavy 1: not shown heavy 2: not shown light: DIVMTQSPLSLPVTPGEPASISCQASESLVHSNRNTYLHWYLQKPGQSPQLLIYKVSNRFSGVPDRFSGSGSGTDFTLKISRVEAEDVGVYYCSQNTHVPPTFGQGTKVEIERTVAAPSVFIFPPSDEQLKSGTASVVCLLNNFYPREAKVQWKVDNALQSGNSQESVTEQDSKDSTYSLSSTLTLSKADYEKHKVYACEVTHQGLSSPVTKSFNRGEC |
